Assay results taken from paper PMC6774274, “Engineering a Seven Enzyme Biotransformation using Mathematical Modelling and Characterized Enzyme Parts” (Chemcatchem, 2019).
Blank lines part the entries; values can stand above or below the molecule they belong to.

Tests used:
mpCAR [1] = biological target: T1, mpCAR (Mycolicibacterium phlei, UniProt A0A5N5VEC4); assay: inhibition of CAR reaction; assay type: biochemical; details: read-out: K I-ADP
T1 construct: gene car; N-terminal 6xHis tag, pNIC28-Bsa4, E. coli BL21(DE3); co-expressed with Bacillus subtilis phosphopantetheine transferase; gene from genomic DNA
T1 sequence (A0A5N5VEC4 1-1162): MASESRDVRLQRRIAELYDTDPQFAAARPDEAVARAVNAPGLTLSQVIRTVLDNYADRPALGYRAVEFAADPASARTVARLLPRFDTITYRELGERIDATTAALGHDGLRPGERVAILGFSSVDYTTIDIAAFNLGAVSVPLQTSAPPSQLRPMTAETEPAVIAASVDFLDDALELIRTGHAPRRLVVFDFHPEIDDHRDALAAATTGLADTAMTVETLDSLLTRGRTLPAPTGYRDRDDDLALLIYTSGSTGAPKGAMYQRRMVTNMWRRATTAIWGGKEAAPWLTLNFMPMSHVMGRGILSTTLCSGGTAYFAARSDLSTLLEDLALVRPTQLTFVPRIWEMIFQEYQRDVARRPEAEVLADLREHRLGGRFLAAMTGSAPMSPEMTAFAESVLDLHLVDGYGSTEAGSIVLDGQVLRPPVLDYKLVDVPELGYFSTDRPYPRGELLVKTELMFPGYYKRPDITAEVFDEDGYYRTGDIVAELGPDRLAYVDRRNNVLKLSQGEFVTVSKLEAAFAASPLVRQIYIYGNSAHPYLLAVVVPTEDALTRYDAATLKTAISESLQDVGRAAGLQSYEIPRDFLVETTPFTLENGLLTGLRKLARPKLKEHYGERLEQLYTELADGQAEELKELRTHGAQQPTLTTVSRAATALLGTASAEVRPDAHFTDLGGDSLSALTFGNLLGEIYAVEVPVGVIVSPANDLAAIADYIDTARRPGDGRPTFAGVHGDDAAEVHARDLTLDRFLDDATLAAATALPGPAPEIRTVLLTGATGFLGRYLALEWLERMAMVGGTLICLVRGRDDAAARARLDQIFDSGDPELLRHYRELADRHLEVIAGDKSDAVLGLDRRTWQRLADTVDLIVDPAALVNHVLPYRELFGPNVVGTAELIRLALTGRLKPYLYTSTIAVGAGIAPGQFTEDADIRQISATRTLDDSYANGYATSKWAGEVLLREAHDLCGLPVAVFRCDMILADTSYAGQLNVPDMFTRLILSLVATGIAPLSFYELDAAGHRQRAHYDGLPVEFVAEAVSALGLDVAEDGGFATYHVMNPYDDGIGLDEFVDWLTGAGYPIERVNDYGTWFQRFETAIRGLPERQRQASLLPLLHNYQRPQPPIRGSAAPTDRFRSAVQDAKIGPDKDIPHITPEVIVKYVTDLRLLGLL
Source text: inhibition of CAR reaction on mpCAR

mpCAR [2] = biological target: T1, mpCAR; assay: NADPH oxidation at […] nm, two-substrate fit; assay type: biochemical; details: kinetic constant for ATP in the ordered rate equation, not an inhibition constant; otherwise as row above
purified protein [3] = substrate: Nc1ncnc2c1ncn2[C@@H]1O[C@H](COP(=O)(O)OP(=O)(O)OP(=O)(O)O)[C@@H](O)[C@H]1O; assay: purified protein; assay type: biochemical, Mycolicibacterium phlei; details: 0.25 mM NADPH, 10 mM MgCl2, varied 4-toluic acid, 100 mM Tris-HCl pH 7.5, 30 °C
purified protein [4] = substrate: NC(=O)C1=CN([C@@H]2O[C@H](COP(=O)(O)OP(=O)(O)OC[C@H]3O[C@@H](n4cnc5c(N)ncnc54)[C@H](OP(=O)(O)O)[C@@H]3O)[C@@H](O)[C@H]2O)C=CC1; assay: purified protein; assay type: biochemical, Mycolicibacterium phlei; details: 10 mM MgCl2, 1 mM ATP, 10 mM 4-toluic acid, 100 mM Tris-HCl pH 7.5, 30 °C, varied: cofactor
purified protein [5] = substrate: Cc1ccc(C(=O)O)cc1; assay: purified protein; details: 0.25 mM NADPH, 10 mM MgCl2, varied ATP, 100 mM Tris-HCl pH 7.5, 30 °C
[6] = substrate: Nc1ncnc2c1ncn2[C@@H]1O[C@H](COP(=O)(O)O)[C@@H](O)[C@H]1O; assay: ADP-Glo kinase assay, luminescence; assay type: biochemical, Thermodesulfobium narugense; details: polyphosphate co-substrate (12.5 mM PO3 units), 20 or 40 mM MgCl2, 100 mM Tris-HCl pH 7.5, 15 min
Source text: ADP-Glo kinase assay, luminescence on tnPAP

B1: mpCAR (Mycolicibacterium phlei DSM 43239 = CCUG 21000) (protein)
chain: T1 sequence (A0A5N5VEC4 1-1162)
notes: N-terminal 6xHis tag, pNIC28-Bsa4, E. coli BL21(DE3); co-expressed with Bacillus subtilis phosphopantetheine transferase; gene from genomic DNA
Km (purified protein [3]): 100 ± 28 µM
kcat (purified protein [3]): 3.33 ± 0.333 s⁻¹
Km (purified protein [4]): 30 ± 8 µM
kcat (purified protein [4]): 3.33 ± 0.333 s⁻¹
Km (purified protein [5]): 1,500±320 μM
kcat (purified protein [5]): 3.33 ± 0.333 s⁻¹

B2: tnPAP (Thermodesulfobium narugense DSM 14796) (protein)
chain: MLEKVDLNKIMDREDYKKEFDNLSIELGALQREARDLKLPIIIVFDGFEAAGKGTLINKLMLPLDPRGYDVIKRFECPSETDNRPYFYKFWKTIPKRGDISIVNESWYKALLSDRVLKKTSPEIVEYLFDEILSFEGQLVADGYLIVKFFLYISEEEQKDRLKKLKKNKDESWRVTDDVLKLHKKYKKFLDAAETVFEKTDTAFAPWTIIEATDKRYATIKIFKTLIEAIKFKIKAIKEKEELPSFENFYPVNELSSLSKIDLNKSLTYEEYIEKLHPLQREIHDLQYRLWKERVPVIVAFEGWDAAGKGGSIKRLTEAMDPRGYTVIPIGAPNEYELAHHYLWRFWQNVPEKGNIAIFDRTWYGRVLVERVEKLCKDFDWQRAYGEIKQMEKQFTNFGIVLLKFWLHIDKKTQLERFEEREKNPFKHWKITEDDWRNRSKWDDYLPAVEEMLIRTSTAEAPWNIIEANDKYFARIKVLETFVNKIKEKLN
notes: N-terminal 6xHis tag, codon-optimised, pNIC28-Bsa4, E. coli
Km [6]: 280 ± 240 µM
kcat [6]: 4.17 ± 2.08 s⁻¹

More lines, now with the values ahead:

Ki (mpCAR [1]): 11 mM
Molecule: Nc1ncnc2c1ncn2[C@@H]1O[C@H](COP(=O)(O)OP(=O)(O)O)[C@@H](O)[C@H]1O [ADP]

K I-ATP (mpCAR [2]): 0.04 ± 0.034 mM
Molecule: Nc1ncnc2c1ncn2[C@@H]1O[C@H](COP(=O)(O)OP(=O)(O)OP(=O)(O)O)[C@@H](O)[C@H]1O [ATP]
